Measured values taken from PMC8446450, “Autosomal Recessive Cutis Laxa 1C Mutations Disrupt the Structure and Interactions of Latent TGFβ Binding Protein-4” (Frontiers in Genetics, 2021).
Positions count from the first letter of the chain named. Numbers in names are those of the source. Like-named read-outs stand apart in the source and are kept apart here.

Experiments:
[1] = target: Latent TGFβ binding protein-4 (LTBP4S) C-terminal region, ARCL1C mutant C1286S (human); experiment: SPR; ProteOn, LTBP4 C-terminal constructs amine-coupled on GLC chip, fibrillin-1 PF3 injected 100-3.1 nM, 10 mM HEPES, 150 mM NaCl, pH 7.4, 0.005% Tween-20, 25°C; steady state (equilibrium) analysis
Fibulin-4, full length = target: T1, Fibulin-4, full length (UniProt O95967 24-443, biotin (biotinylated ligand on streptavidin biosensors, position not stated)); experiment: BLI; OctetRED96, immobilised full-length fibulin-4, NWT or C274G 1000-62.5 nM, 10 mM HEPES, 150 mM NaCl, pH 7.4, 0.005% Tween-20, 25°C; steady state analysis
T1 construct: full-length fibulin-4; source: expressed and purified as previously described (Choudhury et al., 2009)
T1 sequence (looked up): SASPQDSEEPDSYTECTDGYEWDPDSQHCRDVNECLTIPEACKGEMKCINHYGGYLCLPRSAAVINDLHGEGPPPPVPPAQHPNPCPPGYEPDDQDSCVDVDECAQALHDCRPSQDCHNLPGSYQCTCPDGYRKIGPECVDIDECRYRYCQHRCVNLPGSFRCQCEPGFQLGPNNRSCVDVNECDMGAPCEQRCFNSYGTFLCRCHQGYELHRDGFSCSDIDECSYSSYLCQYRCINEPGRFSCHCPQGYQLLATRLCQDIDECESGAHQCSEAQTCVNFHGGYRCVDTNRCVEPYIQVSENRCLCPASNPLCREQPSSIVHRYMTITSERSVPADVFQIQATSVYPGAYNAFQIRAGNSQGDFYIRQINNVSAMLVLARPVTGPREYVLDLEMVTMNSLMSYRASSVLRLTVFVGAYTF

[2] = target: T2, Tropoelastin (SHELdelta26A) (biotin where immobilised on streptavidin biosensors (position not given)); experiment: BLI
T2 chain: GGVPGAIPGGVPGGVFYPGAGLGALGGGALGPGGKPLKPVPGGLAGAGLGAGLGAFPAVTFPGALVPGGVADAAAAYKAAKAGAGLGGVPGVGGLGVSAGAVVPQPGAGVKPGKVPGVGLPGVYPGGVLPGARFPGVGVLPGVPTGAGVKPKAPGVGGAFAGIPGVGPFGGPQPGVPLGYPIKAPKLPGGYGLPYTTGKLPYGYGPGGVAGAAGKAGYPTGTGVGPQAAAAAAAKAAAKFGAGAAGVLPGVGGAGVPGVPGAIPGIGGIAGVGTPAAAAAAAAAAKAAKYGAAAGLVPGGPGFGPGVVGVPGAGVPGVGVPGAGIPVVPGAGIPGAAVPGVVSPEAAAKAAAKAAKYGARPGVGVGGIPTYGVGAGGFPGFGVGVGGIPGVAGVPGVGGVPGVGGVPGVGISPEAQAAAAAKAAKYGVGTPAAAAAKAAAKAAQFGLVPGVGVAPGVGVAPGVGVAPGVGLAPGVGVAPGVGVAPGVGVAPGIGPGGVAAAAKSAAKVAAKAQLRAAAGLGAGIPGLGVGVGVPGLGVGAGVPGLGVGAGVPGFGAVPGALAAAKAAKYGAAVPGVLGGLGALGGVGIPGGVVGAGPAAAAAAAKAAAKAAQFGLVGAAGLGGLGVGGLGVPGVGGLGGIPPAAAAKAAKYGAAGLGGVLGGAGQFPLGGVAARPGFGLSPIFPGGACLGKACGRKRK

[3] = target: Tropoelastin (SHELdelta26A); experiment: BLI; OctetRED96, biotinylated tropoelastin on streptavidin biosensors, LTBP4 C-terminal constructs 375-23.4 nM, 10 mM HEPES, 150 mM NaCl, pH 7.4, 0.005% Tween-20, 25°C; steady state analysis
Fibrillin-1 PF3 fragment = target: T3, Fibrillin-1 PF3 fragment (UniProt P35555 45-722); experiment: SPR; ProteOn, LTBP4 C-terminal constructs amine-coupled on GLC chip, fibrillin-1 PF3 injected 100-3.1 nM, 10 mM HEPES, 150 mM NaCl, pH 7.4, 0.005% Tween-20, 25°C; steady state (equilibrium) analysis; details: both partners purified
T3 construct: signal peptide in the construct; fibrillin-1 PF3 fragment, residues 1-722 (Rock et al., 2004); also called N-terminal region of fibrillin-1; source: purified
T3 sequence (P35555 45-722): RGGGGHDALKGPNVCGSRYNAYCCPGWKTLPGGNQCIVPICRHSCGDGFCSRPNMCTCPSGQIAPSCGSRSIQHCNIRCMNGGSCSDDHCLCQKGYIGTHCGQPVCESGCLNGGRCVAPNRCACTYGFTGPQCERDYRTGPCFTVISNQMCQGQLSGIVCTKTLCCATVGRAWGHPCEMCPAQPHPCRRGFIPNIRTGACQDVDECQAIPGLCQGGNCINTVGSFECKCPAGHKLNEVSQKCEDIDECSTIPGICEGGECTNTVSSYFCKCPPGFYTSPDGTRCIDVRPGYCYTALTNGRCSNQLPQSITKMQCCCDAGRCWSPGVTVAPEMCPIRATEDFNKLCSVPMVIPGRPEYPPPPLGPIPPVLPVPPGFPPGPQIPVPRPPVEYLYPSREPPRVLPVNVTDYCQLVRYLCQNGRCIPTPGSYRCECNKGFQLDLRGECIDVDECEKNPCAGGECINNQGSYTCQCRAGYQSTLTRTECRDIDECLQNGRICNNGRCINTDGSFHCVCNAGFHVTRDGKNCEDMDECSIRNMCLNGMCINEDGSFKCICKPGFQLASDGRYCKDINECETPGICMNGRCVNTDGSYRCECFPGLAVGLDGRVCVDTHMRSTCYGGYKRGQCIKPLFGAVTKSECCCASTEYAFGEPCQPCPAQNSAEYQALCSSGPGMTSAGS

“Fibrillin-1 PF3 fragment (from UniProt P35555 45-722) (domain or fragment)” was tested. Which Kd [1] did it give?
Its Kd is 12.2 nM.

How did the Kd (Fibulin-4, full length) turn out when “Latent TGFβ binding protein-4 (LTBP4S) N-terminal region, ARCL1C mutant C274G (domain or fragment)” was run?
The Kd was 177 nM.

B1: Latent TGFβ binding protein-4 (LTBP4S) C-terminal region, wild type (domain or fragment, human, UniProt Q8N2S1-2 1114-1557, looked up)
chain: RECYFDTAAPDACDNILARNVTWQECCCTVGEGWGSGCRIQQCPGTETAEYQSLCPHGRGYLAPSGDLSLRRDVDECQLFRDQVCKSGVCVNTAPGYSCYCSNGYYYHTQRLECIDNDECADEEPACEGGRCVNTVGSYHCTCEPPLVLDGSQRRCVSNESQSLDDNLGVCWQEVGADLVCSHPRLDRQATYTECCCLYGEAWGMDCALCPAQDSDDFEALCNVLRPPAYSPPRPGGFGLPYEYGPDLGPPYQGLPYGPELYPPPALPYDPYPPPPGPFARREAPYGAPRFDMPDFEDDGGPYGESEAPAPPGPGTRWPYRSRDTRRSFPEPEEPPEGGSYAGSLAEPYEELEAEECGILDGCTNGRCVRVPEGFTCRCFDGYRLDMTRMACVDINECDEAEAASPLCVNARCLNTDGSFRCICRPGFAPTHQPHHCAPARPRA
notes: numbers count on: LTBP4S; N-glycosylated (PNGase-F shift); also called CWT; C WT
For B1, which Kd [2] is on record?
Its Kd is 6.4 nM.

And the Kd [3]?
The Kd was 57 nM.

And the Kd (Fibrillin-1 PF3 fragment)?
The Kd was 15.8 nM.

B2: Latent TGFβ binding protein-4 (LTBP4S) C-terminal region, ARCL1C mutant C1286S (domain or fragment)
chain: B1 chain with C143S
With B2 as the molecule, how does the Kd [2] read?
Its Kd is 65 nM.

And the Kd [3]?
The Kd was 151 nM.

B3: Latent TGFβ binding protein-4 (LTBP4S) N-terminal region, wild type (domain or fragment, human, UniProt Q8N2S1-2 29-394, looked up)
chain: GERLRVRFTPVVCGLRCVHGPTGSRCTPTCAPRNATSVDSGAPGGAAPGGPGFRAFLCPLICHNGGVCVKPDRCLCPPDFAGKFCQLHSSGARPPAPAVPGLTRSVYTMPLANHRDDEHGVASMVSVHVEHPQEASVVVHQVERVSGPWEEADAEAVARAEAAARAEAAAPYTVLAQSAPREDGYSDASGFGYCFRELRGGECASPLPGLRTQEVCCRGAGLAWGVHDCQLCSERLGNSERVSAPDGPCPTGFERVNGSCEDVDECATGGRCQHGECANTRGGYTCVCPDGFLLDSSRSSCISQHVISEAKGPCFRVLRDGGCSLPILRNITKQICCCSRVGKAWGRGCQLCPPFGSEGFREICPA
notes: numbers count on: LTBP4S; N-glycosylated (PNGase-F shift); Biotinylated when immobilised on streptavidin biosensors in the fibronectin BLI experiment (general BLI methods); also called NWT; LTBP4 N-terminal region
For B3, which Kd (Fibulin-4, full length; both partners purified) is on record?
Its Kd is 1290 nM.
